We go through 9 molecules from US20230272081A1 (AVACTA LIFE SCIENCES, published 2023).

One may read the Kd as the free concentration of one partner at which half of the binding sites on the other are occupied at equilibrium, for simple one-to-one binding. The koff is the rate constant with which the complex falls apart. A high value points to fast dissociation. As usually defined, the kon is the second-order rate constant of association. Read a high kon as fast association. The term EC50 (read off the curve) denotes the midpoint of the concentration-response curve. A high value points to weaker potency.

Experiment [1] deals with T1, human PD-L1-Fc (R&D Systems) (human, UniProt Q9NZQ7 19-239).
T1 construct: Bought from R&D Systems; also called rhPD-L1-Fc; human PD-L1 Fc chimeric protein; not shown: the Fc part of the bought chimera is not described
T1 sequence (Q9NZQ7 19-239): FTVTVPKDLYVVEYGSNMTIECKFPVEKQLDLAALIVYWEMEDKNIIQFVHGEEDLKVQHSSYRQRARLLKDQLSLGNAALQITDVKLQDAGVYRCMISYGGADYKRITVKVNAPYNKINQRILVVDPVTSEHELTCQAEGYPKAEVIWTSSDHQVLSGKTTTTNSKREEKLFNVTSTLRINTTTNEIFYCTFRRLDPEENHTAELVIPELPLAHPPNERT
Put plainly: SPR (Biacore T200), PD-L1-Fc amine-coupled to CM5 chip, AFFIMER as analyte, 1:1 Langmuir fit. The protocol:
To analyze PD-L1-Fc binding kinetics, a Biacore T200 kinetic analysis was performed using running buffer HBS-EP+ and series S sensor CM5 (GE Healthcare) chip Fc2 immobilized with PD-L1-Fc (R&D Systems) in 10 mM sodium acetate pH 4.0 using amine coupling reagents (GE Healthcare). The concentration titration of ILF AFFIMER® proteins was run as analyte at a flow rate of 30 μl/min. […] with 3 mM NaOH (GE healthcare) for 20 seconds at 20 μl/min flow rate. The Fc2-1 data blank was subtracted and fit to a 1:1 Langmuir binding model (Biacore evaluation software; GE) to calculate an apparent KD value.
In general terms: In SPR one partner is held on a chip, and binding of the other changes the refractive index at the surface.

For experiment [2], the target named is T2, mouse serum albumin (MSA) (mouse, UniProt P07724 25-608). In words: SPR (Biacore) kinetic analysis, MSA, pH 6.0; reference HSA-18 monomer.
The target in experiment [3] is PD-L1 (PD-1/PD-L1 blockade Bioassay, Promega) (UniProt Q9NZQ7 19-290, limits assumed). In words: cell-based or functional assay.
Sequence of PD-L1 (PD-1/PD-L1 blockade Bioassay, Promega) (Q9NZQ7 19-290 limits assumed): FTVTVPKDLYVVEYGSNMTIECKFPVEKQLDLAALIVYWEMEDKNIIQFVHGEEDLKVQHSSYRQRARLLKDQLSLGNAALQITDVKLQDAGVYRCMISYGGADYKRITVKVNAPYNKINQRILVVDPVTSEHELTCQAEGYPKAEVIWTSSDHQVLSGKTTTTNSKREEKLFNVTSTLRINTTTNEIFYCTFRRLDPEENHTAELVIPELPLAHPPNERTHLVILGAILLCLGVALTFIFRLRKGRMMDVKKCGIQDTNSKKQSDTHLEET
For experiment [4], the target named is T3, human serum albumin (HSA) (human, UniProt P02768 25-609).
T3 construct: mature; also called HuSA; HSA (Sigma)
T3 sequence (P02768 25-609): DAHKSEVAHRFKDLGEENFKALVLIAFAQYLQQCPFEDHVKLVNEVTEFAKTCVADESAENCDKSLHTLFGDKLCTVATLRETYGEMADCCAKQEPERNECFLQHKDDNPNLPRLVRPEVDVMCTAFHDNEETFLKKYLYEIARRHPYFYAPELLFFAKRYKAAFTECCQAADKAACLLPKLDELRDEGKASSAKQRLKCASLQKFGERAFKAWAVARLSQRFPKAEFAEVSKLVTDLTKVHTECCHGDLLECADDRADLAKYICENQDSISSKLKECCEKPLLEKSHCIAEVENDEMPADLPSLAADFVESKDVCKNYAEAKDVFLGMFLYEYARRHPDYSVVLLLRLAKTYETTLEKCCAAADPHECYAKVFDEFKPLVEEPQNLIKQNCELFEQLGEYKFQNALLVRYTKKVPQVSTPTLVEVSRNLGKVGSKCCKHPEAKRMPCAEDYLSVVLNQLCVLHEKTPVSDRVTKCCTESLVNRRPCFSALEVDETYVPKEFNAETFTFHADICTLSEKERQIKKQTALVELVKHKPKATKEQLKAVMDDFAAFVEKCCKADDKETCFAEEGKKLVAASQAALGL
In words: SPR (Biacore) kinetic analysis, pH 6.0 and pH 7.4 running buffer; the pH for each end is not stated; lower end of the range; pH 6.0 or pH 7.4 not told.

For experiment [5], the target named is T2, mouse serum albumin (MSA). In words: binding ELISA on coated MSA, pH 7.4 by the legend (the panel's title prints pH 7). (In an ELISA, binding on a coated surface is turned into a signal by an enzyme label.)

A value given as a limit tells only on which side of the number the result lay.

B1: AVA04-261 (designed binder)
chain: MIPRGLSEAKPATPEIQEIVDKVKPQLEEKTNETYGKLEAVQYKTQVLAHAYGPRDWDSTNYYIKVRAGDNKYMHLKVFNGPPADHVLEEAADRVLTGYQVDKNKDDELTGFHHHHHH
B1: in experiment [1], the Kd amounted to 2.95 nM, the koff was determined as 0.0109 s⁻¹ and the kon was found to be 3.68e+06 M⁻¹ s⁻¹.

B2: AVA04-251 XT61 (designed binder)
chain: MIPRGLSEAKPATPEIQEIVDKVKPQLEEKTNETYGKLEAVQYKTQVLAREGRQDWVLSTNYYIKVRAGDNKYMHLKVFNGPWVPFPHQQLADRVLTGYQVDKNKDDELTGFAEAAAKEAAAKEAAAKEAAAKEAAAKEAAAKMIPRGLSEAKPATPEIQEIVDKVKPQLEEKTNETYGKLEAVQYKTQVLADWWQAKWPHSTNYYIKVRAGDNKYMHLKVFNGPYKVHQSSGGADRVLTGYQVDKNKDDELTGFAEAAAKEAAAKEAAAKEAAAKEAAAKEAAAKMIPRGLSEAKPATPEIQEIVDKVKPQLEEKTNETYGKLEAVQYKTQVLAREGRQDWVLSTNYYIKVRAGDNKYMHLKVFNGPWVPFPHQQLADRVLTGYQVDKNKDDELTGFHHHHHH
notes: Made in E. coli and purified on NiNTA
Consider B2, for which the “fold of the monomer serum albumin binding AFFIMER affinity” value in experiment [2] was not above 2 fold.

B3: AVA04-251 XT60 (designed binder)
chain: MIPRGLSEAKPATPEIQEIVDKVKPQLEEKTNETYGKLEAVQYKTQVLAREGRQDWVLSTNYYIKVRAGDNKYMHLKVFNGPWVPFPHQQLADRVLTGYQVDKNKDDELTGFAEAAAKEAAAKEAAAKEAAAKEAAAKEAAAKMIPRGLSEAKPATPEIQEIVDKVKPQLEEKTNETYGKLEAVQYKTQVLAREGRQDWVLSTNYYIKVRAGDNKYMHLKVFNGPWVPFPHQQLADRVLTGYQVDKNKDDELTGFAEAAAKEAAAKEAAAKEAAAKEAAAKEAAAKMIPRGLSEAKPATPEIQEIVDKVKPQLEEKTNETYGKLEAVQYKTQVLADWWQAKWPHSTNYYIKVRAGDNKYMHLKVFNGPYKVHQSSGGADRVLTGYQVDKNKDDELTGFHHHHHH
notes: as for B2
As for B3, in experiment [2], the “fold of the monomer serum albumin binding AFFIMER affinity” value was not above 2 fold.

B4: AVA04-251 XT15 (designed binder)
chain: MIPRGLSEAKPATPEIQEIVDKVKPQLEEKTNETYGKLEAVQYKTQVLAREGRQDWVLSTNYYIKVRAGDNKYMHLKVFNGPWVPFPHQQLADRVLTGYQVDKNKDDELTGFAEAAAKEAAAKEAAAKEAAAKEAAAKEAAAKMIPRGLSEAKPATPEIQEIVDKVKPQLEEKTNETYGKLEAVQYKTQVLANFFQRRWPGSTNYYIKVRAGDNKYMHLKVFNGPWKFRNTDRGADRVLTGYQVDKNKDDELTGFAEAAAKEAAAKEAAAKEAAAKEAAAKEAAAKMIPRGLSEAKPATPEIQEIVDKVKPQLEEKTNETYGKLEAVQYKTQVLAREGRQDWVLSTNYYIKVRAGDNKYMHLKVFNGPWVPFPHQQLADRVLTGYQVDKNKDDELTGFHHHHHH
Turning to B4, the “half-maximal concentration in the PD-1/PD-L1 blockade Bioassay (Promega), fold change relative to assay buffer; the table's head prints IC50 (nM), the text calls it EC50” value in experiment [3] was determined as 434 nM.

B5: HSA-18 (designed binder)
chain: MIPRGLSEAKPATPEIQEIVDKVKPQLEEKTNETYGKLEAVQYKTQVLADWWQAKWPHSTNYYIKVRAGDNKYMHLKVFNGPYKVHQSSGGADRVLTGYQVDKNKDDELTGFHHHHHH
notes: also called HSA-18 monomer
In turn, B5 displayed a Kd in experiment [4] of 109 to 152 nM.

B6: AVA04-251 XT14 (designed binder)
chain: MIPRGLSEAKPATPEIQEIVDKVKPQLEEKTNETYGKLEAVQYKTQVLAREGRQDWVLSTNYYIKVRAGDNKYMHLKVFNGPWVPFPHQQLADRVLTGYQVDKNKDDELTGFAEAAAKEAAAKEAAAKEAAAKEAAAKEAAAKMIPRGLSEAKPATPEIQEIVDKVKPQLEEKTNETYGKLEAVQYKTQVLAREGRQDWVLSTNYYIKVRAGDNKYMHLKVFNGPWVPFPHQQLADRVLTGYQVDKNKDDELTGFAEAAAKEAAAKEAAAKEAAAKEAAAKEAAAKMIPRGLSEAKPATPEIQEIVDKVKPQLEEKTNETYGKLEAVQYKTQVLANFFQRRWPGSTNYYIKVRAGDNKYMHLKVFNGPWKFRNTDRGADRVLTGYQVDKNKDDELTGFHHHHHH
B6: the “half-maximal concentration in the PD-1/PD-L1 blockade Bioassay (Promega), fold change relative to assay buffer; the table's head prints IC50 (nM), the text calls it EC50” value in experiment [3] came out at 176 nM.

B7: HSA-41 (designed binder)
chain: MIPRGLSEAKPATPEIQEIVDKVKPQLEEKTNETYGKLEAVQYKTQVLANFFQRRWPGSTNYYIKVRAGDNKYMHLKVFNGPWKFRNTDRGADRVLTGYQVDKNKDDELTGFHHHHHH
notes: Made in E. coli; also called AVA-41; AFFIMER® XT “AVA-41”
For the molecule B7, the “EC50 (read off the curve)” value in experiment [5] was approximately 5 nM.

B8: AVA04-236 (designed binder)
chain: MIPRGLSEAKPATPEIQEIVDKVKPQLEEKTNETYGKLEAVQYKTQVLAKEHGPDSWWSTNYYIKVRAGDNKYMHLKVFNGPQEKNQWVEEADRVLTGYQVDKNKDDELTGFHHHHHH
In experiment [1], B8 yielded a Kd of 5.43 nM, a koff of 0.00977 s⁻¹ and a kon of 1.8e+06 M⁻¹ s⁻¹.

B9: AVA04-269 (designed binder)
chain: MIPRGLSEAKPATPEIQEIVDKVKPQLEEKTNETYGKLEAVQYKTQVLAKEYGPEEWWSTNYYIKVRAGDNKYMHLKVFNGPGDYEQVLIHADRVLTGYQVDKNKDDELTGFHHHHHH
In the case of B9, in experiment [1], binding was put at a Kd of 1.68 nM, the koff was found to be 0.00345 s⁻¹ and the kon came out at 2.05e+06 M⁻¹ s⁻¹.
